# Source: patent US20170101442A1
# Ends that are not written are not given here.
# Assays:
# [1] = target: insulin-like growth factor 2 receptor (IGF2R) on rat hepatic stellate cells HSC-T6 (rat); assay: flow cytometry, uptake of 5-FAM labelled peptide by HSC-T6 cells, 1 h
# [2] = target: insulin-like growth factor 2 receptor (IGF2R) on rat hepatic stellate cells HSC-T6 (rat); assay: flow cytometry, 5-FAM labelled peptide titrated on HSC-T6 cells, 1 h at 37 C; apparent Kd
binder,measurement,setting,value
"VHWDFRQWWQPS (also: 5-FAM label, position not given here) [Peptide-431]",cellular uptake,[1],12%
same,Kd,[2],12.3 µM
